Assay results reported in paper PMC2563146.

Target: Gal4-ARNT-ΔTAD (PL283), Gal DNA-binding domain fusion of ARNT deleted for the transactivation domain
Test: two-hybrid

“full-length AHRdbd, 'fish' of the mammalian two-hybrid (pTgTAHRdbd, PL1548) (from UniProt P30561 10-848) (natural protein)” gave a fold increase of luciferase activity with 1nM TCDD of 10 fold.

In the case of “wild-type AHR, 'fish' of the mammalian two-hybrid (pTgTAHRs, PL1550) (from UniProt P30561 10-848) (natural protein)”, the fold increase of luciferase activity with 1nM TCDD was 3 fold.
